# Test results taken from CN113150138A.
# B1: KPC-2单克隆抗体 4B2 (antibody, V domains shown)
# VH: QVQLQQPGAELVKPGASVKMSCKASGYTFTSYNMHWVKQTPGQGLEWIGGLYPGNGDTSYNQKFKGRATLTADKSSSTAYMKLSSLTSEDSAVYFCARVGYGHYYFDYWGQGTTLTVSS
# VL: DIKMTQSPSSMYASLGERVTIICKASQDINNYLSWFQQKPGKSPKTLIYRANRLAEGVPSRFSGIGSGQDYSLTISSLEYEDMGIYYCLQYDEFPLTFGAGTKLELK
# B2: KPC-2单克隆抗体 1D7 (antibody, V domains shown)
# VH: EVQLQQSGPELVKPGASMKISCKASGYSFTGYTMNWVKQSHGKNLEWIGLINPYNGVTTYNQRFKDKATLTVDKSSITAYMELLSLTSEDSAVYYCARRGLLGLYAMDYWGQGTSVTVSS
# VL: DVQITQSPSYLAASPGETITINCRASESIFKFLAWYQEKPGKTNRLLIYSGSTLQSGIPSRFSGSGSGTDFTLTISSLEPEDFAMYYCQQHNEYPLTFGAGTKLELK
# Molecular target: 重组KPC-2蛋白 (recombinant KPC-2 protein, Klebsiella pneumoniae carbapenemase KPC-2) (Klebsiella pneumoniae (肺炎克雷伯菌)) (UniProt Q848S6)
# UniProt Q848S6, sequence (Q848S6 25-293): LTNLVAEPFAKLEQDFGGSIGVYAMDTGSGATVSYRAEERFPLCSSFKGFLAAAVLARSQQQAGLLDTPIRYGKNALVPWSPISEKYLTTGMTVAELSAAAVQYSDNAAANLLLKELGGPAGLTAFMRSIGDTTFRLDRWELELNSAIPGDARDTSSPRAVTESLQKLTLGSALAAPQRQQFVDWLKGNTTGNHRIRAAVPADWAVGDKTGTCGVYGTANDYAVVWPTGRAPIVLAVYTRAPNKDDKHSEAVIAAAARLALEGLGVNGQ
# Assay: indirect ELISA, KPC-2 coated at 100 ng/well, antibody diluted 1:10000 to 1:2560000
row,Binder,"效价 (ELISA titer, highest positive dilution) (dilution factor)"
1,B1,> 2e+06
2,B2,> 2e+06
